Source: US20190284272A1 (published 2019)

Key:
[1] = target: T1, canine IL-31 protein (Canine_IL31) (canine); assay: SPR (Biacore), FIG. 2 Section B
T1 construct: Recombinant, secreted from CHO cells; also called cIL-31; canine cytokine
T1 chain: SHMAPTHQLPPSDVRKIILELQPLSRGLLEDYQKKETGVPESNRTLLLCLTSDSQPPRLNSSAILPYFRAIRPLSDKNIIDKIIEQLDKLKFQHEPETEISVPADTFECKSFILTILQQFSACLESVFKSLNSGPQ
Method: (§1) The affinity with which candidate mAbs bind canine and feline IL-31 was determined using surface plasmon resonance (SPR) on a Biacore system (Biocore Life Sciences (GE Healthcare), Uppsala, Sweden). To avoid affinity differences associated with differential surface preparation that can occur when immobilizing antibodies to surfaces; a strategy was employed where IL-31 was directly conjugated to the surface. Immobilization was obtained by amine coupling 5 μg/mL IL-31 using N-hydroxysuccinimide (NHS)/1-Ethyl-3-(3-dimethylaminopropyl) carbodiimide (EDC) chemistry. Chips were quenched with ethanolamine and the affinity with which all candidate mAbs bound to the immobilized IL-31 was evaluated. All curves were fit to a 1:1 model. […] Results for affinity measurements are described herein.
FIG. 2 details the affinity of antibodies with CDRs derived from mouse origin using biacore. […] These observations confirm the correct sequence for both mouse antibodies and indicate conversion to the chimeric form results in antibodies with equivalent or higher affinity when compared to the mouse parent with the exception of the mouse:feline 15H05 chimera which lost some affinity to both IL-31 species as a result of its conversion to the chimeric form. […]

[2] = target: T1, canine IL-31 protein (Canine_IL31); assay: SPR (Biacore), IL-31 protein as surface
Method: as §1
Table 1 below describes the results for biacore analysis using multiple species of IL-31 protein as a surface capture.

[3] = target: T1, canine IL-31 protein (Canine_IL31); assay: cell-based or functional assay
[4] = target: T1, canine IL-31 protein (Canine_IL31); assay: Biacore, canine IL-31 surface, single antibody concentration (FIG. 4)
Method: as §1
For the indirect ELISA method, antibody binding to wildtype and feline IL-31 15H05 mutant proteins was assessed. All nine canine monoclonal antibodies (ZIL1, ZIL8, ZIL8, ZIL11, ZIL69, ZIL94, ZIL154, ZIL159, and ZIL171) were capable of binding to wildtype feline IL-31 and binding was impacted by mutations in the mAb 15H05 epitope region confirming the correct binding phenotype determined during the initial screening used to identify them. […]

[5] = target: T1, canine IL-31 protein (Canine_IL31); assay: cell-based or functional assay
[6] = target: T2, canine IL-31 protein (Canine_IL31); assay: Biacore
T2 chain: T1 chain

B1: Feline 11E12 1.2 (antibody, V domains shown)
VH: QVLLVQSGAEVKKPGASVKIFCKASGYSFTYYDINWLRQAPEQGLEWMGWIFPGDGGTKYNETFKGRLTLTADTSTNTVYMELSSLRSADTAMYYCARGGTSVIRDAMDYWGQGALVTVSS
VL: EVVLTQSSAFLSRTLKEKATITCRASESVDNYGISFMHWYQQKPNQAPKLLVKRASNLESGAPSRFSGSGSGTDFTLTISSPEPEDAATYYCQQSNKDPLTFGQGT
notes: also called felinized 11E12 1.2
[1]
  binding result: no binding

B2: ZTS-361 (antibody)
heavy: QVLLVQSGAEVRTPGASVKIFCKASGYSFTSYTIHWLRQAPAQGLEWMGNINPTSGYTENNQRFKDRLTLTADTSTNTAYMELSSLRSADTAMYYCARWGFKYDGEWSFDVWGAGTTVTVSSASTTAPSVFPLAPSCGTTSGATVALACLVLGYFPEPVTVSWNSGALTSGVHTFPAVLQASGLYSLSSMVTVPSSRWLSDTFTCNVAHPPSNTKVDKTVRKTDHPPGPKPCDCPKCPPPEAAGAPSIFIFPPKPKDTLSISRTPEVTCLVVDLGPDDSDVQITWFVDNTQVYTAKTSPREEQFNSTYRVVSVLPILHQDWLKGKEFKCKVNSKSLPSPIERTISKAKGQPHEPQVYVLPPAQEELSRNKVSVTCLIKSFHPPDIAVEWEITGQPEPENNYRTTPPQLDSDGTYFVYSKLSVDRSHWQRGNTYTCSVSHEALHSHHTQKSLTQSPGK
light: EIQMTQSPSSLSASPGDRVTITCRASQGISIWLSWYQQKPGNIPKVLINKASNLHIGVPSRFSGSGSGTDFTLTISSLEPEDAATYYCLQSQTYPLTFGGGTKLEIKRSDAQPSVFLFQPSLDELHTGSASIVCILNDFYPKEVNVKWKVDGVVQNKGIQESTTEQNSKDSTYSLSSTLTMSSTEYQSHEKFSCEVTHKSLASTLVKSFQRSECQRE
notes: Felinized 15H05 1.1 FW2, effector-null feline heavy constant region
[2]
  Kd: 2.41 pM
[3]
  Inhibition of IL-31 induced pSTAT3 IC50 (µg/ml), Canine IL-31 on Canine DH82 cells: 23 µg/ml

B3: ZTS-1505 (antibody)
heavy: B2 heavy
light: EIQMTQSPSSLSASPGDRVTITCRASQGISIWLSWYQQKPGNIPKVLINKASNLHIGVPSRFSGSGSGTDFTLTISSLEPEDAATYYCLQSQTYPLTFGGGTKLEIKRSDAQPSVFLFQPSLDELHTGSASIVCILNDFYPKEVNVKWKVDGVVQNKGIQESTTEQNSKDSTYSLSSTLTMSSTEYQSHEKFSCEVTHKSLASTLVKSFQRSEC
notes: also called ZT-1 505
[2]
  Kd: 1.83 pM
[3]
  Inhibition of IL-31 induced pSTAT3 IC50 (µg/ml), Canine IL-31 on Canine DH82 cells: 21.8 µg/ml

B4: ZIL154 (antibody, V domains shown)
VH: EVHLVESGGDLVKPWGSLRLSCVASGFTFSDRGMSWVRQSPGKGLQWVAYIRYDGSRTDYADAVEGRFTISRDNAKNTLYLQMNSLRAEDTAVYYCARWDGSSFDYWGQGTLVTVSS
VL: DIVVTQTPLSLSVSPGETASFSCKASQSLLHSDGNTYLDWFRQKPGQSPQRLIYKVSNRDPGVPDRFSGSGSGTDFTLRISGVEADDAGLYYCMQAIHFPLTFGAGTKVELKR
notes: Recombinant fully canine IgG (65_1), HEK 293; also called CAN-ZIL154
[4]
  binding result: no binding

B5: 15H05 mouse: canine chimera (antibody)
heavy: QVQLQQSAAELARPGASVKMSCKTSGYTFTSYTIHWIKQRPGQGLEWIGNINPTSGYTENNQRFKDKTTLTVDRSSNTAYLQLHSLTSEDSAVYFCARWGFKYDGEWSFDVWGAGTTVTVSSASTTAPSVFPLAPSCGSTSGSTVALACLVSGYFPEPVTVSWNSGSLTSGVHTFPSVLQSSGLYSLSSMVTVPSSRWPSETFTCNVAHPASKTKVDKPVPKRENGRVPRPPDCPKCPAPEMLGGPSVFIFPPKPKDTLLIARTPEVTCVVVDLDPEDPEVQISWFVDGKQMQTAKTQPREEQFNGTYRVVSVLPIGHQDWLKGKQFTCKVNNKALPSPIERTISKARGQAHQPSVYVLPPSREELSKNTVSLTCLIKDFFPPDIDVEWQSNGQQEPESKYRTTPPQLDEDGSYFLYSKLSVDKSRWQRGDTFICAVMHEALHNHYTQESLSHSPGK
light: DIQMNQSPSSLSASLGDTITVTCRASQGISIWLSWYQQKPGNIPKVLINKASNLHIGVPPRFSGSGSGTHFTLTITSLQPEDIATYYCLQSQTYPLTFGGGTKLEINRNDAQPAVYLFQPSPDQLHTGSASVVCLLNSFYPKDINVKWKVDGVIQDTGIQESVTEQDKDSTYSLSSTLTMSSTEYLSHELYSCEITHKSLPSTLIKSFQRSEC
[5]
  IC50 against canine IL-31 (pSTAT3 assay; cell type not clear): 12.5 µg/ml

B6: mouse: feline 15H05 chimera (antibody)
heavy: QVQLQQSAAELARPGASVKMSCKTSGYTFTSYTIHWIKQRPGQGLEWIGNINPTSGYTENNQRFKDKTTLTVDRSSNTAYLQLHSLTSEDSAVYFCARWGFKYDGEWSFDVWGAGTTVTVSSASTTAPSVFPLAPSCGTTSGATVALACLVLGYFPEPVTVSWNSGALTSGVHTFPAVLQASGLYSLSSMVTVPSSRWLSDTFTCNVAHPPSNTKVDKTVRKTDHPPGPKPCDCPKCPPPEAAGAPSIFIFPPKPKDTLSISRTPEVTCLVVDLGPDDSDVQITWFVDNTQVYTAKTSPREEQFNSTYRVVSVLPILHQDWLKGKEFKCKVNSKSLPSPIERTISKAKGQPHEPQVYVLPPAQEELSRNKVSVTCLIKSFHPPDIAVEWEITGQPEPENNYRTTPPQLDSDGTYFVYSKLSVDRSHWQRGNTYTCSVSHEALHSHHTQKSLTQSPGK
light: DIQMNQSPSSLSASLGDTITVTCRASQGISIWLSWYQQKPGNIPKVLINKASNLHIGVPPRFSGSGSGTHFTLTITSLQPEDIATYYCLQSQTYPLTFGGGTKLEINRSDAQPSVFLFQPSLDELHTGSASIVCILNDFYPKEVNVKWKVDGVVQNKGIQESTTEQNSKDSTYSLSSTLTMSSTEYQSHEKFSCEVTHKSLASTLVKSFQRSECQRE
[6]
  Kd: 12.9 pM
[5]
  IC50 against canine IL-31 (pSTAT3 assay; cell type not clear): 28.6 µg/ml

B7: mouse anti IL-31 antibody 15H05 (antibody, mouse IgG1, kappa)
heavy: QVQLQQSAAELARPGASVKMSCKTSGYTFTSYTIHWIKQRPGQGLEWIGNINPTSGYTENNQRFKDKTTLTVDRSSNTAYLQLHSLTSEDSAVYFCARWGFKYDGEWSFDVWGAGTTVTVSSKTTPPSVYPLAPGSAAQTNSMVTLGCLVKGYFPEPVTVTWNSGSLSSGVHTFPAVLESDLYTLSSSVTVPSSPRPSETVTCNVAHPASSTKVDKKIVPRDCGCKPCICTVPEVSSVFIFPPKPKDVLTITLTPKVTCVVVDISKDDPEVQFSWFVDDVEVHTAQTQPREEQFNSTFRSVSELPIMHQDWLNGKEFKCRVNSAAFPAPIEKTISKTKGRPKAPQVYTIPPPKEQMAKDKVSLTCMITDFFPEDITVEWQWNGQPAENYKNTQPIMNTNGSYFVYSKLNVQKSNWEAGNTFTCSVLHEGLHNHHTEKSLSHSPGK
light: DIQMNQSPSSLSASLGDTITVTCRASQGISIWLSWYQQKPGNIPKVLINKASNLHIGVPPRFSGSGSGTHFTLTITSLQPEDIATYYCLQSQTYPLTFGGGTKLEINADAAPTVSIFPPSSEQLTSGGASVVCFLNNFYPKDINVKWKIDGSERQNGVLNSWTDQDSKDSTYSMSSTLTLTKDEYERHNSYTCEATHKTSTSPIVKSFNRNEC
notes: Mouse hybridoma antibody, mouse IgG1 heavy and mouse kappa light constant regions; also called Mu-15H05; MU-15H05
[6]
  Kd: 4.87 pM
[2]
  Kd: 1.91 pM
[3]
  Inhibition of IL-31 induced pSTAT3 IC50 (µg/ml), Canine IL-31 on Canine DH82 cells: 11.2 µg/ml
